In the supplement of paper PMC9170038:

What was measured:
MS2 coat protein [1] = test: apparent KD of MS2 coat protein; designed switch direction (-1 OFF switch, 1 ON switch): 1; higher = weaker reporter binding
In short: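 Each step of the titration lasted 0.8–1.5 h at the lowest concentration and 10–20 min at the highest. The protein, SNAP-549-labelled MS2 coat protein, went from 0.7 or 1.5 nM doubling to 3 µM over RNA switches transcribed on Illumina chips by stalled E. coli RNA polymerase. Normalised cluster fluorescence was curve-fitted, and the per-design median over clusters is given as apparent KD.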

MS2 coat protein [2] = test: apparent KD of MS2 coat protein; higher = weaker reporter binding; details: Eterna round: R107
In short: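 Illumina sequencing clusters served as templates for on-chip transcription of the designed RNA switches. SNAP-549-labelled MS2 coat protein was then titrated in twofold steps from 0.7 or 1.5 nM to 3 µM, allowing 0.8–1.5 h per step at first and 10–20 min per step later. The buffer held 100 mM Tris-HCl pH 7.5, 80 mM KCl and 4 mM MgCl2, without or with constant ligand. Apparent KD is the median per design of normalised cluster binding-curve fits.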

[3] = input ligand: microRNA oligo, concentration not stated
[4] = input ligand: theophylline 20 uM
[5] = input ligand: theophylline 2 mM
[6] = input ligand: tryptophan 2.4 mM

Sequence | apparent KD of MS2 coat protein (MS2 coat protein [1]; Eterna round: R95, input ligand: FMN 200 uM) | apparent KD of MS2 coat protein (MS2 coat protein [1]; Eterna round: R95, input ligand: microRNA oligo, concentration not stated) | apparent KD of MS2 coat protein (MS2 coat protein [1]; Eterna round: R95, input ligand: none) | apparent KD of MS2 coat protein (MS2 coat protein [1]; input ligand: FMN 200 uM) | apparent KD of MS2 coat protein (MS2 coat protein [1]; [3]) | apparent KD of MS2 coat protein (MS2 coat protein [1]; input ligand: none) | apparent KD of MS2 coat protein (MS2 coat protein [2]; input ligand: arginine 13.2 mM) | apparent KD of MS2 coat protein (MS2 coat protein [2]; input ligand: none) | apparent KD of MS2 coat protein (MS2 coat protein [2]; [4]) | apparent KD of MS2 coat protein (MS2 coat protein [2]; [5]) | apparent KD of MS2 coat protein (MS2 coat protein [2]; [6])
AACAAUCUAUCUGAGGAUAUCAUGAUAUAAACAUGAGGAUCACCCAUGUGCAGGAAAACUGCAUAUGAGAAGGCAGAUAGAUUGA [salish99_ss2_r3_031] (puzzle: Same State 2) | 43 nM | 232 nM | 118 nM |  |  |  |  |  |  |  | 
AACAGUCGGCGAGGAUAUGGACGUACGGACUAACCCGCGCGGCUCACAUGAGGAUCACCCAUGUUCUAGAAGGCGCCACUGAAA [Xeorendi] (Eterna round: R96, puzzle: Same State NG 2) |  |  |  | 13.8 nM | 45.3 nM | 50.9 nM |  |  |  |  | 
AACCAGAGAAAACAACUCUGACAUGAGGAUCACCCAUGUACACAGGAUAUCAGCCCGAAAAGGGCUGAGAAGGGUGGCCGAGUG [Beveat] (Eterna round: R96, puzzle: Same State NG 3) |  |  |  | 574 nM | 29.2 nM | 33.9 nM |  |  |  |  | 
AACGGUCGACAAGGAUAUGGACGGACAGGUUUGCCUGUGCGGCUCACAUGAGGAUCACCCAUGUUCUAGAAGGUGUCACCAAGA [Tiinor] (Eterna round: R96, puzzle: Same State NG 2) |  |  |  | 36.9 nM | 141 nM | 259 nM |  |  |  |  | 
UUCGUUUGCGGAAGGAGCGACGGACAUCGGUGAACAACGCACAUGAGGAUCACCCAUGUACGUCAGGUAGGUCGCCGCUAAGAGU [XArg-B3] |  |  |  |  |  |  | 29.3 nM | 105 nM | 134 nM | 375 nM | 73.6 nM
UUGCAGAUCGGAAAGGUCCUGCUGUUCGAAGGAGCGGUAAAAGUACCAGGUAGGUCGCGAACAUGAGGAUCACCCAUGUUUGCAA [Usmaenbi] |  |  |  |  |  |  | 11.3 nM | 22.3 nM | 28.2 nM | 20.2 nM | 21.1 nM
UUGGGUUUGUGAAGGAGCGGGAAAGAUAUAUAUUUAAUCCUAACAUGAGGAUCACCCAUGUCCCAGGUAGGUCGCGCGGGUUUGG [12.O] |  |  |  |  |  |  | 33.9 nM | 47.1 nM | 46.4 nM | 64.3 nM | 46.9 nM
UUGUUGUUUGGAAGGAGCGUGUAUGAGUUAGAACAUGAGGAUCACCCAUGUUGGAUGAUAGCACAGGUAGGUCGCCGGGUGGUGG [11.Y] |  |  |  |  |  |  | 8.43 nM | 24.1 nM | 18.4 nM | 66.8 nM | 11 nM
UUUACAUGAGGAUCACCCAUGUGCCAUGAUACCAGACAUGAAAAUGUCCCUUGGCAGCAUGAGUGAUAUGCGUCGGAAACGACGC [Jundrov] |  |  |  |  |  |  | 499 nM | 153 nM | 102 nM | 1210 nM | 194 nM
UUUACGGGAAACCGAACUAAACAAAGGGAAGGAGCGCCAAACAAGGCAGGUAGGUCGCCCACAUGAGGAUCACCCAUGUGUUGGG [Exclusion Arginine A GF 25] |  |  |  |  |  |  | 32.6 nM | 60.3 nM | 67.9 nM | 64 nM | 53.2 nM
UUUUUCGUAGGUUAAAGUUUAGAAACUGAAGGAGCGUGGUAAUACACAGGUAGGUCGCAGAUUUUACAUGAGGAUCACCCAUGUU [JR_ExcArginiA_Sub012] |  |  |  |  |  |  | 26.9 nM | 24.5 nM | 20.7 nM | 26.2 nM | 21.1 nM
UUUUUUAUUGGGUAUAGAAUAUUAACUGAAGGAGCGUGGUAUUACACAGGUAGGUCGCAGUUUUUACAUGAGGAUCACCCAUGUU [JR_SSArginiA_Sub010] |  |  |  |  |  |  | 36.1 nM | 38.5 nM | 51.5 nM | 60.1 nM | 39 nM
